{"source": "patent US20240132578A1", "experiment_in_all_cases": "cell-based or functional assay", "key": {"[1]": {"target": "HIV-1 Env of isolate MGRM-C-026 (subtype C) (HIV-1)"}, "[2]": {"target": "HIV-1 Env of isolate MGRM-G-013 (subtype G), on pseudovirus (HIV-1)"}, "[3]": {"target": "HIV-1 Env of isolate MGRM-G-009 (subtype G), on pseudovirus (HIV-1)"}, "[4]": {"target": "HIV-1 Env of isolate MGRM-C-014 (subtype C) (HIV-1)"}, "[5]": {"target": "HIV-1 Env of isolate MGRM-C-023 (subtype C) (HIV-1)"}, "[6]": {"target": "HIV-1 Env of isolate MGRM-G-027 (subtype G), on pseudovirus (HIV-1)"}, "[7]": {"target": "HIV-1 Env of isolate MGRM-C-028 (subtype C) (HIV-1)"}, "[8]": {"target": "HIV-1 Env of isolate MGRM-G-015 (subtype G), on pseudovirus (HIV-1)"}, "[9]": {"target": "HIV-1 Env of isolate MGRM-G-024 (subtype G), on pseudovirus (HIV-1)"}, "[10]": {"target": "HIV-1 Env of isolate MGRM-C-022 (subtype C) (HIV-1)"}, "[11]": {"target": "HIV-1 Env of isolate MGRM-C-010 (subtype C) (HIV-1)"}, "[12]": {"target": "HIV-1 Env of isolate MGRM-G-028 (subtype G), on pseudovirus (HIV-1)"}, "[13]": {"target": "HIV-1 Env of isolate MGRM-C-017 (subtype C) (HIV-1)"}, "[14]": {"target": "HIV-1 Env of isolate MGRM-C-020 (subtype C) (HIV-1)"}, "[15]": {"target": "HIV-1 Env of isolate MGRM-C-015 (subtype C) (HIV-1)"}, "[16]": {"target": "HIV-1 Env of isolate MGRM-C-027 (subtype C) (HIV-1)"}, "[17]": {"target": "HIV-1 Env of isolate MGRM-G-025 (subtype G), on pseudovirus (HIV-1)"}, "[18]": {"target": "HIV-1 Env of isolate MGRM-C-002 (subtype C) (HIV-1)"}, "[19]": {"target": "HIV-1 Env of isolate MGRM-C-025 (subtype C) (HIV-1)"}, "[20]": {"target": "HIV-1 Env of isolate 98IN022 (subtype C) (HIV-1)"}, "[21]": {"target": "HIV-1 Env of isolate MGRM-G-001 (subtype G), on pseudovirus (HIV-1)"}, "[22]": {"target": "HIV-1 Env of isolate 97ZA012 (subtype C) (HIV-1)"}, "[23]": {"target": "HIV-1 Env of isolate MGRM-C-024 (subtype C) (HIV-1)"}, "[24]": {"target": "HIV-1 Env of isolate MGRM-G-014 (subtype G), on pseudovirus (HIV-1)"}, "[25]": {"target": "HIV-1 Env of isolate MGRM-G-004 (subtype G), on pseudovirus (HIV-1)"}, "[26]": {"target": "HIV-1 Env of isolate MGRM-G-016 (subtype G), on pseudovirus (HIV-1)"}, "[27]": {"target": "HIV-1 Env of isolate MGRM-G-011 (subtype G), on pseudovirus (HIV-1)"}, "[28]": {"target": "HIV-1 JR-CSF Env N478A (HIV-1 JR-CSF) (UniProt P20871)"}, "[29]": {"target": "HIV-1 Env of isolate MGRM-G-006 (subtype G), on pseudovirus (HIV-1)"}, "[30]": {"target": "HIV-1 Env of isolate 93MW959 (subtype C) (HIV-1)"}, "[31]": {"target": "HIV-1 Env of isolate MGRM-C-005 (subtype C) (HIV-1)"}, "[32]": {"target": "HIV-1 Env of isolate MGRM-C-013 (subtype C) (HIV-1)"}, "[33]": {"target": "HIV-1 Env of isolate MGRM-C-006 (subtype C) (HIV-1)"}, "[34]": {"target": "HIV-1 Env of isolate MGRM-C-007 (subtype C) (HIV-1)"}, "[35]": {"target": "HIV-1 Env of isolate MGRM-C-008 (subtype C) (HIV-1)"}, "[36]": {"target": "HIV-1 Env of isolate MGRM-G-017 (subtype G), on pseudovirus (HIV-1)"}, "[37]": {"target": "HIV-1 Env of isolate MGRM-C-001 (subtype C) (HIV-1)"}, "[38]": {"target": "HIV-1 Env of isolate MGRM-C-019 (subtype C) (HIV-1)"}, "[39]": {"target": "HIV-1 Env of isolate MGRM-C-009 (subtype C) (HIV-1)"}, "[40]": {"target": "HIV-1 Env of isolate MGRM-C-012 (subtype C) (HIV-1)"}, "[41]": {"target": "aMLV envelope, on pseudovirus (negative control)"}, "[42]": {"target": "HIV-1 Env of isolate MGRM-C-004 (subtype C) (HIV-1)"}, "[43]": {"target": "HIV-1 Env of isolate MGRM-G-019 (subtype G), on pseudovirus (HIV-1)"}, "[44]": {"target": "HIV-1 JR-CSF Env D477A (HIV-1 JR-CSF) (UniProt P20871)"}}}
{"binder": "PGT-125 (antibody, V domains shown) VH: QSQLQESGPRLVEASETLSLTCNVSGESTGACTYFWGWVRQAPGKGLEWIGSLSHCQSFWGSGWTFHNPSLKSRLTISLDTPKNQVFLKLTSLTAADTATYYCARFDGEVLVYNHWPKPAWVDLWGRGIPVTVSS VL: QSALTQPPSASGSPGQSITISCNGTATNFVSWYQQFPDKAPKLIIFGVDKRPPGVPDRFSGSRSGTTASLTVSRLQTDDEAVYYCGSLVGNWDVIFGGGTTLTVL", "values": [{"measurement": "IC50 (µg/mL), pseudovirus neutralization", "setting": "[1]", "value": 0.005, "unit": "µg/mL"}, {"measurement": "IC50 (µg/mL), neutralization of pseudovirus", "setting": "[2]", "value": "> 50", "unit": "µg/mL"}, {"measurement": "IC50 (µg/mL), neutralization of pseudovirus", "setting": "[3]", "value": "> 50", "unit": "µg/mL"}, {"measurement": "IC50 (µg/mL), pseudovirus neutralization", "setting": "[4]", "value": "> 50", "unit": "µg/mL"}, {"measurement": "IC50 (µg/mL), pseudovirus neutralization", "setting": "[5]", "value": 1.31, "unit": "µg/mL"}, {"measurement": "IC50 (µg/mL), neutralization of pseudovirus", "setting": "[6]", "value": 34.4, "unit": "µg/mL"}, {"measurement": "IC50 (µg/mL), pseudovirus neutralization", "setting": "[7]", "value": 14, "unit": "µg/mL"}, {"measurement": "IC50 (µg/mL), neutralization of pseudovirus", "setting": "[8]", "value": "> 50", "unit": "µg/mL"}, {"measurement": "IC50 (µg/mL), neutralization of pseudovirus", "setting": "[9]", "value": "> 50", "unit": "µg/mL"}, {"measurement": "IC50 (µg/mL), pseudovirus neutralization", "setting": "[10]", "value": 1.23, "unit": "µg/mL"}, {"measurement": "IC50 (µg/mL), pseudovirus neutralization", "setting": "[11]", "value": "> 50", "unit": "µg/mL"}, {"measurement": "IC50 (µg/mL), neutralization of pseudovirus", "setting": "[12]", "value": 0.012, "unit": "µg/mL"}, {"measurement": "IC50 (µg/mL), pseudovirus neutralization", "setting": "[13]", "value": 2.36, "unit": "µg/mL"}, {"measurement": "IC50 (µg/mL), pseudovirus neutralization", "setting": "[14]", "value": "> 50", "unit": "µg/mL"}, {"measurement": "IC50 (µg/mL), pseudovirus neutralization", "setting": "[15]", "value": "> 50", "unit": "µg/mL"}, {"measurement": "IC50 (µg/mL), pseudovirus neutralization", "setting": "[16]", "value": "> 50", "unit": "µg/mL"}, {"measurement": "IC50 (µg/mL), neutralization of pseudovirus", "setting": "[17]", "value": "> 50", "unit": "µg/mL"}, {"measurement": "IC50 (µg/mL), pseudovirus neutralization", "setting": "[18]", "value": 0.008, "unit": "µg/mL"}, {"measurement": "IC50 (µg/mL), pseudovirus neutralization", "setting": "[19]", "value": 42.5, "unit": "µg/mL"}, {"measurement": "IC50 (µg/mL), pseudovirus neutralization", "setting": "[20]", "value": 22.1, "unit": "µg/mL"}, {"measurement": "IC50 (µg/mL), neutralization of pseudovirus", "setting": "[21]", "value": 0.033, "unit": "µg/mL"}, {"measurement": "IC50 (µg/mL), pseudovirus neutralization", "setting": "[22]", "value": 2.46, "unit": "µg/mL"}, {"measurement": "IC50 (µg/mL), pseudovirus neutralization", "setting": "[23]", "value": "> 50", "unit": "µg/mL"}, {"measurement": "IC50 (µg/mL), neutralization of pseudovirus", "setting": "[24]", "value": 0.007, "unit": "µg/mL"}, {"measurement": "IC50 (µg/mL), neutralization of pseudovirus", "setting": "[25]", "value": "> 50", "unit": "µg/mL"}, {"measurement": "IC50 (µg/mL), neutralization of pseudovirus", "setting": "[26]", "value": "> 50", "unit": "µg/mL"}, {"measurement": "IC50 (µg/mL), neutralization of pseudovirus", "setting": "[27]", "value": "> 50", "unit": "µg/mL"}, {"measurement": "Fold IC50 increase relative to wild-type", "setting": "[28]", "value": 1.5, "unit": "fold"}, {"measurement": "IC50 (µg/mL), neutralization of pseudovirus", "setting": "[29]", "value": "> 50", "unit": "µg/mL"}, {"measurement": "IC50 (µg/mL), pseudovirus neutralization", "setting": "[30]", "value": 37.5, "unit": "µg/mL"}, {"measurement": "IC50 (µg/mL), pseudovirus neutralization", "setting": "[31]", "value": 2.09, "unit": "µg/mL"}, {"measurement": "IC50 (µg/mL), pseudovirus neutralization", "setting": "[32]", "value": "> 50", "unit": "µg/mL"}, {"measurement": "IC50 (µg/mL), pseudovirus neutralization", "setting": "[33]", "value": 0.015, "unit": "µg/mL"}, {"measurement": "IC50 (µg/mL), pseudovirus neutralization", "setting": "[34]", "value": "> 50", "unit": "µg/mL"}, {"measurement": "IC50 (µg/mL), pseudovirus neutralization", "setting": "[35]", "value": "> 50", "unit": "µg/mL"}, {"measurement": "IC50 (µg/mL), neutralization of pseudovirus", "setting": "[36]", "value": "> 50", "unit": "µg/mL"}, {"measurement": "IC50 (µg/mL), pseudovirus neutralization", "setting": "[37]", "value": "> 50", "unit": "µg/mL"}, {"measurement": "IC50 (µg/mL), pseudovirus neutralization", "setting": "[38]", "value": 0.13, "unit": "µg/mL"}, {"measurement": "IC50 (µg/mL), pseudovirus neutralization", "setting": "[39]", "value": "> 50", "unit": "µg/mL"}, {"measurement": "IC50 (µg/mL), pseudovirus neutralization", "setting": "[40]", "value": "> 50", "unit": "µg/mL"}, {"measurement": "IC50 (µg/mL), neutralization of pseudovirus", "setting": "[41]", "value": "> 50", "unit": "µg/mL"}, {"measurement": "IC50 (µg/mL), pseudovirus neutralization", "setting": "[42]", "value": 1.82, "unit": "µg/mL"}, {"measurement": "IC50 (µg/mL), neutralization of pseudovirus", "setting": "[43]", "value": "> 50", "unit": "µg/mL"}, {"measurement": "Fold IC50 increase relative to wild-type", "setting": "[44]", "value": 3.4, "unit": "fold"}]}
